From patent US8603949B2, “Libraries of optimized cytochrome P450 enzymes and the optimized P450 enzymes” (California Institute of Technology, priority 2003, dated 2013)
Entries after “also recorded” stand apart in the source; their conditions may differ.

B1: Chimera F3791: chimera of the CYP102A1/A2/A3 seven-crossover library (protein)
chain: KETSPIPQPKTFGPLGNLPLIDKDKPTLSLIKLAEEQGPIFQIHTPAGTTIVVSGHELVKEVCDESRFDKNLSQALKFVRDFAGDGLATSWTHEKNWKKAHNILLPSFSQQAMKGYHAMMVDIAVQLIQKWARLNPNEAVDVPGDMTRLTLDTIGLCGFNYRFNSYYRDSQHPFITSMLRALKEAMNQSKRLGLQDKMMVKTKLQFQKDIEVMNSLVDKIIADRKASGEQSDDLLTHMLNGKDPETGEPLDDENIRYQIITFLIAGHETTSGLLSFATYFLLKHPDKLKKAYEEVDRVLTDAAPTYKQVLELTYIRMILNESLRLWPTAPAFSLYAKEDTVLGGEYPISKGQPVTVLIPKLHRDQNAWGPDAEDFRPERFEDPSSIPHHAYKPFGNGQRACIGMQFALQEATMVLGLVLKHFELINHTGYELKIKEALTIKPDDFKITVKPRKTAAINVQRKEQA
modifications: Chimeric Cytochrome P450 heme group polypeptide sequence from CYP102A1 (Bacillus megaterium); CYP102A2 (Bacillus subtilis) and CYP102A3 (Bacillus subtilis)
notes: chimera of the CYP102A1/A2/A3 seven-crossover library
B2: CYP102A1: parent P450 heme domain from Bacillus megaterium, with the F87A mutation (protein, listed as Bacillus megaterium)
chain: TIKEMPQPKTFGELKNLPLLNTDKPVQALMKIADELGEIFKFEAPGRVTRYLSSQRLIKEACDESRFDKNLSQALKFVRDFAGDGLATSWTHEKNWKKAHNILLPSFSQQAMKGYHAMMVDIAVQLVQKWERLNADEHIEVPEDMTRLTLDTIGLCGFNYRFNSFYRDQPHPFITSMVRALDEAMNKLQRANPDDPAYDENKRQFQEDIKVMNDLVDKIIADRKASGEQSDDLLTHMLNGKDPETGEPLDDENIRYQIITFLIAGHETTSGLLSFALYFLVKNPHVLQKAAEEAARVLVDPVPSYKQVKQLKYVGMVLNEALRLWPTAPAFSLYAKEDTVLGGEYPLEKGDELMVLIPQLHRDKTIWGDDVEEFRPERFENPSAIPQHAFKPFGNGQRACIGQQFALHEATLVLGMMLKHFDFEDHTNYELDIKETLTLKPEGFVVKAKSKKIPLGGIPSPST
B3: Chimera 43-135: CYP102A1 heme domain with residues 43-135 from CYP102A2 (protein)
chain: TIKEMPQPKTFGELKNLPLLNTDKPVQALMKIADELGEIFKFHTPAGTTIVVSGHELVKEVCDEERFDKSIEGALEKVRAFSGDGLATSWTHEPNWRKAHNILMPTFSQRAMKDYHEKMVDIAVQLIQKWARLNPDEHIEVPEDMTRLTLDTIGLCGFNYRFNSFYRDQPHPFITSMVRALDEAMNKLQRANPDDPAYDENKRQFQEDIKVMNDLVDKIIADRKASGEQSDDLLTHMLNGKDPETGEPLDDENIRYQIITFLIAGHETTSGLLSFALYFLVKNPHVLQKAAEEAARVLVDPVPSYKQVKQLKYVGMVLNEALRLWPTAPAFSLYAKEDTVLGGEYPLEKGDELMVLIPQLHRDKTIWGDDVEEFRPERFENPSAIPQHAFKPFGNGQRACIGQQFALHEATLVLGMMLKHFDFEDHTNYELDIKETLTLKPEGFVVKAKSKKIPLGGIPSPST
modifications: Chimeric Cytochrome P450 heme group sequence from Bacillus megaterium and Bacillus subtilis
notes: CYP102A1 heme domain with residues 43-135 from CYP102A2
B4: Chimera 191-335: CYP102A1 heme domain with residues 191-335 from CYP102A2 (protein)
chain: TIKEMPQPKTFGELKNLPLLNTDKPVQALMKIADELGEIFKFEAPGRVTRYLSSQRLIKEACDESRFDKNLSQALKFVRDFAGDGLATSWTHEKNWKKAHNILLPSFSQQAMKGYHAMMVDIAVQLVQKWERLNADEHIEVPEDMTRLTLDTIGLCGFNYRFNSFYRDQPHPFITSMVRALDEAMNKLQRLDVQDKLMVRTKRQFRYDIQTMFSLVDSIIAERRANGDQDEKDLLARMLNVEDPETGEKLDDENIRFQIITFLIAGHETTSGLLSFATYFLLKHPDKLKKAYEEVDRVLTDAAPTYKQVLELTYIRMILNESLRLWPTAPAFSLYPKEDTVLGGEYPLEKGDELMVLIPQLHRDKTIWGDDVEEFRPERFENPSAIPQHAFKPFGNGQRACIGQQFALHEATLVLGMMLKHFDFEDHTNYELDIKETLTLKPEGFVVKAKSKKIPLGGIPSPST
modifications: Chimeric Cytochrome P450 heme group sequence from Bacillus megaterium and Bacillus subtilis
notes: CYP102A1 heme domain with residues 191-335 from CYP102A2

Legend:
[1] = Library plate screen, activity on 12-pNCA; assay type: biochemical; conditions: seven-crossover library, cell lysate
Protocol: These library plates were replicated and grown in 96 deep-well plates in 900 μL of LB media with 100 μg/ml ampicillin overnight at 30° C. and 250 rpm. 150 μL of this was then transferred to 850 μL of induction media (TB-media with final concentrations of 100 μg/ml ampicillin, 25 μg/ml thiamine, 0.5 mM δ-aminolevulinic acid and 0.6 mM IPTG). These were grown for 20-24 hours at 25° C. and 190 rpm, harvested by centrifugation at 5000×g for 8 minutes and frozen at −20° C. for at least 24 hours. Cells were resuspended using a pipetting robot (Multimek 96, Beckman) and lysed in 400 μL of Epps or Tris buffer (100 mM, pH 8.2) containing 0.8 mg/ml lysozyme and 2 units/mL DNaseI for 1 hour at 37° C. Plates were then spun for 8 minutes at 5000×g and 4° C. to pellet cell debris. 80 μL of lysate was transferred into 4 separate 96 well plates for each library plate. […] On one plate, high -throughput carbon monoxide spectroscopy was done in order to assess relative amounts of P450 (Otey, C. R. High-throughput carbon monoxide binding assay for cytochromes P450. In Directed Enzyme Evolution: Screening and Selection Methods, F. H. Arnold and G. Georgiou, eds. (Totowa, N.J.: Humana Press) pp. 137-139 (2003)) with 0.1 M sodium hydrosulfite being used in place of 0.4 M. The other three plates were used to assay activity on different substrates. […]

[2] = Li et al. 2001; read-out: KM for 12-pNCA; cited from earlier work
[3] = Thermostability (loss of Soret band at increasing temperatures); assay type: physicochemical; conditions: cell extracts heated 10 minutes
Method in brief: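 Cell extracts heated 10 minutes at a range of temperatures, cooled to 4° C and centrifuged to remove precipitate. Remaining P450 quantified by carbon monoxide reduced difference spectroscopy, following loss of the CO/Soret peak with temperature.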

[4] = Peroxidase activity with ABTS and H2O2; assay type: biochemical; conditions: for Peroxidase activity: 10 mM ABTS, 20 mM H2O2, pH 5.0, activities <0.2 not detectable (N.D.); for peroxidase activity relative to parents: ABTS
Method in brief: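 Initial peroxidase rates from ABTS radical cation accumulation at 414 nm: 1 μM enzyme, 10 mM ABTS, 200 mM phosphate pH 5.0, room temperature, started with H2O2 to 20 mM. Monitored 5 min; rate from steepest part of time course using ε 36,000 […].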

[5] = Peroxygenase activity on allyloxy-benzene (4-AAP assay); assay type: biochemical; conditions: 50 mM substrate
Protocol: (§1) The chimeras were assayed for hydroxylation of p-nitrophenoxydodecanoic acid (12-pNCA), a fatty acid analog that is hydroxylated by CYP102A1 and CYP102A2 to yield p-nitrophenolate (Schwaneberg et al., Anal Biochem 269,359-366 (1999)). […] When hydroxylation rates for the parent CYP102 enzymes were monitored using the maximum soluble concentrations of these substrates, activity could only be detected on 2-phenoxy-ethanol.
(§2) Rates on 2-phenoxy-ethanol and allyloxy-benzene were determined using 2 μM enzyme, 20 mM H2O2, 1% DMSO, and 1% acetone in 100 mM N-[2-hydroxyethyl]piperazine-N′-[3-propanesulfonic acid] (Epps) (pH 8.2) at room temperature. Substrate concentrations for 2-phenoxy-ethanol (100 mM) and allyloxy benzene (50 mM) maintained saturation. Reactions were initiated by the addition of H2O2 and quenched at appropriate times using an equal volume of a solution containing 4M urea and 100 mM NaOH. 120 μl of 0.6% 4-AAP was added, followed by mixing and addition of 120 μl of 0.6% potassium persulfate. Color was allowed to develop for 20 minutes before absorbance was read at 500 nm. Rates were determined from the linear region of the time course. The major products were determined by GC/MS to be the hemiacetal, which decomposes to phenol. The extinction coefficient for the 4-AAP/phenol complex was determined to be 4,800 M^−1cm^−1. The results can be seen in FIG. 4.

[6] = Peroxygenase activity on 2-phenoxy-ethanol (4-AAP assay); assay type: biochemical; conditions: 100 mM substrate
Protocol: as §1, §2

[7] = Peroxygenase substrate activity profile; assay type: biochemical; conditions: 20 mM H2O2
Method in brief: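 Peroxygenase rates were measured with H2O2 (20 mM) at room temperature and pH 8.2. For 12-pNCA (250 μM), 1 μM enzyme in Tris buffer was used, with initial p-nitrophenolate formation read at 410 nm over the first 6 s. For 2-phenoxy-ethanol (100 mM) and allyloxy-benzene (50 mM), 2 μM enzyme in EPPS buffer was used, reactions were quenched, phenol was detected by 4-AAP at 500 nm, and rates are in nmol product/nmol P450/min.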

[8] = Peroxygenase activity, hydroxylation of 12-pNCA; assay type: biochemical; conditions: 250 μM 12-pNCA
Protocol: as §1
This Example provides one method by which peroxygenase activity of a P450 enzyme may be characterized. First order rates for p-nitrophenolate accumulation were determined using 1 μM enzyme, 20 mM H2O2, 250 μM 12-pNCA and 0.5% dimethyl sulfoxide (DMSO) in 100 mM Tris-HCl (pH 8.2) at room temperature. Enzyme, substrate, buffer and DMSO were combined in a cuvette and zeroed at 410 nm. Reaction mixtures were incubated for 4 minutes and initiated by the addition of H2O2 to a final concentration of 20 mM. Initial rates were determined by monitoring the accumulation of p-nitrophenolate at 410 nm, and data from the first six seconds were used to determine initial rates. […] The extinction coefficient of p-nitrophenolate is 13,200 M^−1cm^−1 (Schwaneberg et al., Anal Biochem 269:359-366 (1999)).

| Molecule | activity for 12-pNCA compared to parent P450s [1] | Km [2] [µM] | Tm [3] [°C] | Peroxidase activity [4] | peroxidase activity relative to parents [4] | peroxygenase activity on allyloxy-benzene [5] | peroxygenase activity on 2-phenoxy-ethanol [6] | substrate activity profile relative to parents [7] | peroxygenase activity on 12-pNCA [8] |
| --- | --- | --- | --- | --- | --- | --- | --- | --- | --- |
| B1 | superior activity |  |  |  |  |  |  |  |  |
| B2 |  | 8.1 | 55 | 2.6 nmol product/nmol P450/min | low, but detectable peroxidase activity |  |  |  |  |
| B3 |  |  | 53 | 6.8 nmol product/nmol P450/min |  | highest rates; also recorded: detectable activity | detectable activity | new activity; also recorded: gained novel activity | not |
| B4 |  |  | 40 |  | no detectable peroxidase activity | detectable activity | detectable activity | new activity; also recorded: gained novel activity | not |
